Results taken from the supplement of paper PMC10724198.
± gives the standard deviation of the averaged measurements.

Tests used:
Saccharomyces cerevisiae [1] = experiment: protein stability index of tFT-peptide fusion (C-terminal peptide) (PSI (0-1 scale)); higher = more stable (slower turnover); conditions: genetic background: wild type; temperature: 30 C
Saccharomyces cerevisiae [2] = experiment: as above
Procedure: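 MPS profiling in S. cerevisiae of the tFT-X12 degron library: putative degron peptides plus stable controls, 12 aa, fused to the C-terminus of a sfGFP-mCherry timer. Cells are FACS-sorted into 8 mCherry/sfGFP bins and deep-sequenced. PSI runs from 0 (unstable) to 1 (stable). Backgrounds are wild type, das1Δ and doa10Δ at 30 °C, and wild type, das1Δ, cdc34-1 and cdc53-1 at 37 °C; 2-3 technical replicates each.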

[3] = genetic background: cdc34-1, temperature: 37 C
[4] = genetic background: cdc53-1, temperature: 37 C
[5] = genetic background: das1 deletion, temperature: 30 C
[6] = genetic background: das1 deletion, temperature: 37 C
[7] = genetic background: doa10 deletion, temperature: 30 C
[8] = genetic background: wild type, temperature: 30 C
[9] = genetic background: wild type, temperature: 37 C
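Further: PSI is a weighted mean of sequencing reads over stability bins, variants kept only with over 10 reads, mCherry proximal and sfGFP distal, peptide attached via GGGS linker.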

Row | Sequence | protein stability index (Saccharomyces cerevisiae [1]) | protein stability index (Saccharomyces cerevisiae [2]; [3]) | protein stability index (Saccharomyces cerevisiae [2]; [4]) | protein stability index (Saccharomyces cerevisiae [2]; [5]) | protein stability index (Saccharomyces cerevisiae [2]; [6]) | protein stability index (Saccharomyces cerevisiae [2]; [7]) | protein stability index (Saccharomyces cerevisiae [2]; [8]) | protein stability index (Saccharomyces cerevisiae [2]; [9])
1 | LLCLLLVPQPHR | 0.0268 ± 0.019 | 0.604 ± 0.015 | 0.66 ± 0.011 | 0.5965 ± 0.0049 | 0.651 ± 0.017 | 0.574 ± 0.027 | 0.584 ± 0.019 | 0.6376 ± 0.003
2 | LLFCFSVILFTC | 0.147 ± 0.018 | 0.0922 ± 0.0021 | 0.189 ± 0.062 | 0.187 ± 0.033 | 0.291 ± 0.018 | 0.0562 ± 0.022 | 0.0652 ± 0.018 | 0.0808 ± 0.0077
3 | LLMCCLPFLWVF | 0.306 ± 0.021 | 0.409 ± 0.033 | 0.432 ± 0.011 | 0.328 ± 0.039 | 0.4679 ± 0.0022 | 0.2085 ± 0.002 | 0.228 ± 0.022 | 0.316 ± 0.0053
4 | LLRFFPLLLFSF | 0.122 ± 0.083 | 0.135 ± 0.048 | 0.114 ± 0.01 | 0.213 ± 0.03 | 0.278 ± 0.02 | 0.181 ± 0.0067 | 0.116 ± 0.016 | 0.159 ± 0.013
5 | LLSPFLLMLLFL | 0.28 ± 0.004 | 0.4001 ± 0.0019 | 0.395 ± 0.0071 | 0.344 ± 0.007 | 0.432 ± 0.0046 | 0.221 ± 0.01 | 0.2 ± 0.02 | 0.317 ± 0.013
6 | LLTGRFRILLVV | 0.0704 ± 0.021 | 0.0537 ± 0.0092 | 0.0715 ± 0.0019 | 0.176 ± 0.019 | 0.276 ± 0.004 | 0.0579 ± 0.017 | 0.0444 ± 0.0073 | 0.0674 ± 0.026
7 | LLVRYRRALVLL | 0.142 ± 0.051 | 0.338 ± 0.0093 | 0.412 ± 0.018 | 0.425 ± 0.025 | 0.53 ± 0.023 | 0.0924 ± 0.015 | 0.0953 ± 0.036 | 0.131 ± 0.033
8 | LLVRYYLFYVLV | 0.351 ± 0.013 | 0.357 ± 0.018 | 0.442 ± 0.02 | 0.316 ± 0.048 | 0.477 ± 0.014 | 0.255 ± 0.0062 | 0.243 ± 0.024 | 0.391 ± 0.0082
9 | LMLISFLFLSLL | 0.466 ± 0.056 | 0.487 ± 0.053 | 0.461 ± 0.021 | 0.448 ± 0.023 | 0.529 ± 0.031 | 0.568 ± 0.031 | 0.397 ± 0.023 | 0.48698 ± 5.5e-05
10 | LPALPFPIPTFA | 0.243 ± 0.053 | 0.0567 ± 0.00074 | 0.0586 ± 0.0097 | 0.186 ± 0.027 | 0.201 ± 0.005 | 0.134 ± 0.0084 | 0.173 ± 0.031 | 0.179 ± 0.01
11 | LPLSPPPLPSSR | 0.432 ± 0.032 | 0.6697 ± 0.0028 | 0.72639 ± 0.00044 | 0.634 ± 0.019 | 0.704 ± 0.014 | 0.639 ± 0.022 | 0.663 ± 0.032 | 0.675 ± 0.018
12 | LPSLPPPPPPPP | 0.498 ± 0.039 | 0.675 ± 0.071 | 0.717 ± 0.018 | 0.673 ± 0.044 | 0.732 ± 0.024 | 0.654 ± 0.025 | 0.647 ± 0.016 | 0.687 ± 0.0092
13 | LPVSLWLVCSFF | 0.324 ± 0.0038 | 0.524 ± 0.009 | 0.543 ± 0.02 | 0.432 ± 0.023 | 0.5682 ± 0.00058 | 0.345 ± 0.023 | 0.358 ± 0.03 | 0.5283 ± 0.0021
14 | LQLGFCFVAQFI | 0.509 ± 0.03 | 0.6346 ± 0.0062 | 0.675 ± 0.02 | 0.491 ± 0.035 | 0.6394 ± 0.0044 | 0.462 ± 0.03 | 0.476 ± 0.024 | 0.607 ± 0.02
15 | LQNCRVSVLLGW | 0.367 ± 0.033 | 0.5443 ± 0.0023 | 0.616 ± 0.011 | 0.485 ± 0.019 | 0.6275 ± 0.0042 | 0.229 ± 0.0028 | 0.246 ± 0.036 | 0.4536 ± 0.0025
16 | LRFYLLTPPSPA | 0.54 ± 0.061 | 0.59 ± 0.022 | 0.6288 ± 0.0054 | 0.481 ± 0.024 | 0.631 ± 0.0089 | 0.469 ± 0.017 | 0.494 ± 0.02 | 0.586 ± 0.029
17 | LRKARLFLKAKC | 0.323 ± 0.03 | 0.645 ± 0.031 | 0.678 ± 0.041 | 0.497 ± 0.032 | 0.705 ± 0.0046 | 0.17 ± 0.022 | 0.219 ± 0.017 | 0.384 ± 0.0047
18 | LRLCMVFAWFLT | 0.337 ± 0.023 | 0.388 ± 0.011 | 0.508 ± 0.039 | 0.351 ± 0.029 | 0.493 ± 0.021 | 0.1836 ± 0.00086 | 0.216 ± 0.03 | 0.3924 ± 0.0028
19 | LRLEFRTNWFLQ | 0.2 ± 0.0067 | 0.557 ± 0.042 | 0.7363 ± 0.0049 | 0.654 ± 0.015 | 0.752 ± 0.017 | 0.101 ± 0.016 | 0.132 ± 0.0047 | 0.402 ± 0.0072
20 | LRVVLVEWMCVV | 0.33 ± 0.03 | 0.248 ± 0.017 | 0.295 ± 0.036 | 0.274 ± 0.037 | 0.418 ± 0.0054 | 0.172 ± 0.011 | 0.21 ± 0.023 | 0.358 ± 0.011
21 | LRVVVGLCMCVL | 0.453 ± 0.015 | 0.4743 ± 0.00078 | 0.503 ± 0.007 | 0.396 ± 0.024 | 0.516 ± 0.0088 | 0.385 ± 0.014 | 0.395 ± 0.019 | 0.4884 ± 0.0035
22 | LSCCIVLLIIFV | 0.338 ± 0.055 | 0.245 ± 0.021 | 0.35 ± 0.021 | 0.27 ± 0.026 | 0.39762 ± 0.00019 | 0.253 ± 0.0077 | 0.262 ± 0.029 | 0.341 ± 0.025
23 | LSFLLLLGCFGS | 0.466 ± 0.076 | 0.5966 ± 0.0035 | 0.6236 ± 0.0046 | 0.476 ± 0.019 | 0.59 ± 0.027 | 0.453 ± 0.017 | 0.462 ± 0.014 | 0.589 ± 0.018
24 | LSGVLFSLIRFY | 0.383 ± 0.036 | 0.587 ± 0.06 | 0.636 ± 0.011 | 0.517 ± 0.03 | 0.696 ± 0.008 | 0.274 ± 0.015 | 0.287 ± 0.032 | 0.495 ± 0.015
25 | LSLWLFRILSVR | 0.4439 ± 0.0026 | 0.4052 ± 0.0027 | 0.451 ± 0.017 | 0.335 ± 0.023 | 0.4987 ± 0.0027 | 0.342 ± 0.0045 | 0.341 ± 0.012 | 0.4906 ± 0.0043
26 | LSPPLRHRLTPP | 0.715 ± 0.047 | 0.675 ± 0.014 | 0.729 ± 0.022 | 0.687 ± 0.032 | 0.712 ± 0.029 | 0.67109 ± 0.00013 | 0.669 ± 0.015 | 0.6731 ± 0.0065
27 | LSVRLYRTVFLV | 0.148 ± 0.02 | 0.359 ± 0.044 | 0.603 ± 0.016 | 0.53 ± 0.02 | 0.6697 ± 0.0046 | 0.0603 ± 0.012 | 0.0721 ± 0.0073 | 0.0864 ± 0.023
28 | LSVYGFYKMPAG | 0.502 ± 0.031 | 0.501 ± 0.024 | 0.5271 ± 0.0027 | 0.487 ± 0.011 | 0.561 ± 0.018 | 0.521 ± 0.032 | 0.491 ± 0.0073 | 0.5368 ± 0.0015
29 | LVAGFVFIFFYR | 0.372 ± 0.059 | 0.356 ± 0.053 | 0.488 ± 0.021 | 0.339 ± 0.033 | 0.49 ± 0.018 | 0.298 ± 0.0043 | 0.319 ± 0.022 | 0.46 ± 0.0078
30 | LVCLTPPPSPFS | 0.412 ± 0.033 | 0.689 ± 0.021 | 0.799 ± 0.065 | 0.323 ± 0.04 | 0.5136 ± 0.0026 | 0.313 ± 0.009 | 0.332 ± 0.016 | 0.486 ± 0.021
